Laboratory results from doi:10.1101/2021.02.24.432656 (bioRxiv, 2021).

Biological target: Flag-importin α1 (human, UniProt P52292 1-529)
Test: pull-down

B1: GST-GFP fused ORF6 full-length protein (natural protein)
chain: MFHLVDFQVTIAEILLIIMRTFKVSIWNLDYIINLIIKNLSKSLTENKYSQLDEEQPMEID
  binding result: binds
